In PMC5421356 (Molecular genetics and metabolism, 2017):

Biological target: the molecule itself
Assay: SEC

B1: human tryptophan 2,3-dioxygenase (40-390), Met108Ile variant (enzyme, UniProt P48775 40-390, looked up)
chain: LIYGNYLHLEKVLNAQELQSETKGNKIHDEHLFIITHQAYELWFKQILWELDSVREIFQNGHVRDERNILKVVSRMHRVSVILKLLVQQFSILETMTALDFNDFREYLSPASGFQSLQFRLLENKIGVLQNMRVPYNRRHYRDNFKGEENELLLKSEQEKTLLELVEAWLERTPGLEPHGFNFWGKLEKNITRGLEEEFIRIQAKEESEEKEEQVAEFQKQKEVLLSLFDEKRHEHLLSKGERRLSYRALQGALMIYFYREEPRFQVPFQLLTSLMDIDSLMTKWRYNHVCMVHRMLGSKAGTGGSSGYHYLRSTVSDRYKVFVDLFNLSTYLIPRHWIPKMNPTIHKFLY
- stoichiometry N: 4
